{"source": "paper PMC11261448", "parents": {"B1": {"name": "wrmScarlet::TDPT-1 [C. elegans] / TOP-2::3xFLAG [C. elegans] (parent)", "chain 1": "MSNSDDEIQEIEAKRQKMSQEDSEVEIEILDEPEQGKLKNSSMSDEQKLHEFAIITATDEAFAQSILQDVDWDLKKALDVFYGSEAFAEARSAAVMGASSSMASSGAAVMTAEDLKGFEVSVMSWNIDGLDGRSLLTRMKAVAHIVKNVNPDILFLQEVVDRDLAPIDKLQSLYKIYYSNKGCQYYTAILVSKMFDVEKHDVIHFQNSGMYRTLQILEGSIGGLKVFLLNTHLESTREHRPQRCAQFGFCMDKVREIIAQNPGALVFFGGDLNLRDEEVSRVPDGVKDAWEAAGSDNKTKFTWDTFKNDNKQGFHGAKMRFDRLYWSGPLDKVKFTLEGRQRIRSCLCFPSDHWAINATFFA", "chain 2": "MSDSDSEFSIEDSPKKKTAPKKEKASPKKKKDDANESMVMTEEDRNVFTSIDKKGGGSKQMAIEDIYQKKSQLEHILLRPDTYIGSVEHTEKTPMWVYNMEESKLEQRDISYVPGLYKIYDEILVNAADNKQRDPKMNTIKITINKEKNEISVYNNGKGIPVTQHKVEKVYVPELIFGTLLTSSNYNDDEKKVTGGRNGYGAKLCNIFSTKFTLETSSRDYKSAFKQTWIKNMTRDEEPKIVKSTDEDFTKITFSPDLAKFKMKELDDDICHLMARRAYDVAGSSKGVAVFLNGKRIPIKGFEDYVQMYTSQFNNEGEPLKIAYEQVGDRWQVALALSEKGFQQVSFVNSIATTKGGRHVDYVADQMVAKFIDSIKRKLTKTSMNIKPFQIKNHMWVFVNCLIENPTFDSQTKETMTLQQKQFGSTCVLSEKFSKAASSVGITDAVMSWVRFKQMDDLNKKCSKTKTSKLKGIPKLEDANDAGTKNSQQCTLILTEGDSAKTLAVSGLSVVGRDKYGVFPLRGKLLNVREGNMKQIADNAEVNAMIKILGLQYKKKYETEDDFKTLRYGKLMVMADQDQDGSHIKGLVINFIHHFWPSLIQRNFVEEFITPIVKATKGKEEVSFYSLPEYSEWRMNTDNWKSYKIKYYKGLGTSTSKEAKEYFLDMVRHRIRFKYNGADDDNAVDMAFSKKKIEERKDWLSKWMREKKDRKQQGLAEEYLYNKDTRFVTFKDFVNRELVLFSNLDNERSIPCLVDGFKPGQRKVLFACFKRADKREVKVAQLAGAVAEISAYHHGEQSLMGTIVNLAQDYVGSNNINLLLPIGQFGTRLQGGKDSASARYIFTQLSPVTRTLFPAHDDNVLRFLYEENQRIEPEWYCPIIPMVLVNGAQGIGTGWSTNIPNYNPRELVKNIKRLIAGEPQKALAPWYKNFRGKIIQIDPSRFACYGEVAVLDDNTIEITELPIKQWTQDYKEKVLEGLMESSDKKSPVIVDYKEYHTDTTVKFVVKLSPGKLRELERGQDLHQVFKLQAVINTTCMVLFDAAGCLRTYTSPEAITQEFYDSRQEKYVQRKEYLLGVLQAQSKRLTNQARFILAKINNEIVLENKKKAAIVDVLIKMKFDADPVKKWKEEQKLKELRESGEIELDEDDLAAVAVEEDEAISSAAKAVETKLSDYDYLVGMALIKLSEEEKNKLIKESEEKMAEVRVIEKKTWQDLWHEDLDNFVSELDKQEAREKADQDASIKNAAKKLAADAKTGRGPKKNVCTEVLPSKDGQRIEPMLDAATKAKYEKMSQPKKERVKKEPKEPKEPKKVKKEGQDIKKFMSPAAPKTAKKEKSDGFNSDMSEESDVEFDEGIDFDSDDDGVEREDVVSKPKPRTGKGAAKAEVIDLSDDDEVPAKKPAPAKKAAPKKKKSEFSDLSGGDSDEEAEKKPSTSKKPSPKKAAPKTAEPKSKAVTDFFGASKKNGKKAAGSDDEDDESFVVAPREKSGRARKAPPTYDVDSGSDSDQPKKKRGRVVDSDSD"}}}
{"variants_of": "B1", "assay": "co-immunoprecipitation (anti-FLAG magnetic agarose beads) with anti-RFP immunoblot, band quantification", "settings": "with TOP-2::3xFLAG [C. elegans]; parent: 1; read off a plot"}
{"variant": "chain 1 MSNSDDEIQEIEAKRQKMSQEDSEVEIEILDEPEQGKLKNSSMSDEQKLHEFAIITATDEAFAQSILQDVDWDLKKALDVFYGSEAFAEARSAAVMGASSSMASSGAAVMTAEDLKRFEVSVMSWNIDGLDGRSLLTRMKAVAHIVKNVNPDILFLQEVVDRDLAPIDKLQSLYKIYYSNKGCQYYTAILVSKMFDVEKHDVIHFQNSGMYRTLQILEGSIGGLKVFLLNTHLESTREHRPQRCAQFGFCMDKVREIIAQNPGALVFFGGDLNLRDEEVSRVPDGVKDAWEAAGSDNKTKFTWDTFKNDNKQGFHGAKMRFDRLYWSGPLDKVKFTLEGRQRIRSCLCFPSDHWAINATFFA", "note": "[chain 1 G117R]", "ratio to parent": 0.42}
{"variants_of": "B1", "assay": "co-immunoprecipitation (anti-FLAG magnetic agarose beads) with anti-RFP immunoblot, band quantification", "settings": "with wrmScarlet::TDPT-1 [C. elegans]; parent: 1; read off a plot"}
{"variant": "chain 2 R828C", "ratio to parent": 1}
